This test deals with activated complement component C3 (C3b) (UniProt P01024). The test is described as follows: SPR. Background: Surface plasmon resonance follows binding to a sensor surface in real time, without labels.

Factor B (natural protein): the response (RU), median, C3b-chip 2 came to 17 RU.

The record behind these values is article PMC10695638.
